Measured values: patent CN114835808A (dated 2022)

Molecular target: T1, 重组cTnI抗原 (UniProt P19429 1-210, limits assumed)
T1 construct: Both are treated here as the same coating of the same experiment
Test: indirect ELISA, recombinant cTnI coated, enzyme-labelled secondary antibody

T1 sequence (P19429 whole entry): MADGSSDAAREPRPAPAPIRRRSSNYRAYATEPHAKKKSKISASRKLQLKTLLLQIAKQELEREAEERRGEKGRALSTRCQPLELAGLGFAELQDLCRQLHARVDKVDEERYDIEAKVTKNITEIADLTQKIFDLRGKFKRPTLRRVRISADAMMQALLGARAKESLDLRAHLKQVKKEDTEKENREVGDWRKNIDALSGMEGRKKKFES

B1: cTnI抗体突变4 (antibody, V domains shown)
VH: EVQLVESGGDLVTPGGSLKLSCTASGFTFSNYAMSWVRQTPEKRLEWVATISSGGTYTFYPDSVKGRFTISRDNAKNTLYLQMSSLRSEDTAIYYCTAAGAFDGEKALDYWGQGTSVTVSS
VL: DIQMNQSTSSLSASLGDRVTISCRASQDISSYLNWYQQRADGTIKLLIYFTSRLHSGVPSRFSGSGSGTDYSLTISNLEQEDIATYFCQQGNTVAATFGGGTRLEIK
notes: Mutant of a mouse anti-cTnI monoclonal antibody, made recombinantly by transient expression and purified on SPA; also called 突变抗体4
  binding result: no binding (tested: 检测值小于0.05基本可判定无活性 (阴性对照0.047左右))
